The source of these data is publication PMC8528721, “Hop2 interacts with the transcription factor CEBPα and suppresses adipocyte differentiation” (The Journal of Biological Chemistry, 2021).

Data set [1] addresses T1, CEBPδ in nuclear extracts of COS1 cells (UniProt Q00322 1-268).
T1 sequence (looked up): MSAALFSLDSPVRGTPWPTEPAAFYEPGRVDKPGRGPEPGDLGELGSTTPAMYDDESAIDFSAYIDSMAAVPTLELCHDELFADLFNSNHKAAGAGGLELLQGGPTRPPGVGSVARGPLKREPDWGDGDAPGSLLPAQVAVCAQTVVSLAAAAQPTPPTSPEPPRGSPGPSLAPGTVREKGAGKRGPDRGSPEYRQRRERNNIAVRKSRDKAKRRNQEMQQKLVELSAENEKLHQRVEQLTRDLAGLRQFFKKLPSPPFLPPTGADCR
The data set can be described thus: cell-based or functional assay.

The target of data set [2] is Flag-tagged CEBPα (UniProt P53566 1-359). The data set can be described thus: cell-based or functional assay.
Data set [3] has as its target T2, endogenous CEBPβ (CCAAT enhancer binding protein beta) (mouse (endogenous in mouse visceral …, UniProt P28033-1 1-296)).
T2 sequence (looked up): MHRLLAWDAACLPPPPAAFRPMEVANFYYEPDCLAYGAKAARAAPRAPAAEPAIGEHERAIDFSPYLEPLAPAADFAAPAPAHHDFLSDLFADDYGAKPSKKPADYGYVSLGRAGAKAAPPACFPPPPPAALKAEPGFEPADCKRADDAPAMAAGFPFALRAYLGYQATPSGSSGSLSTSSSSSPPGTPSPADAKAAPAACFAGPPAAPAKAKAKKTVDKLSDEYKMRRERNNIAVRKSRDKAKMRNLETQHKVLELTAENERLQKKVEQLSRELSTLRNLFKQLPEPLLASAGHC
Description: cell-based or functional assay.

The target of data set [4] is His-CEBPα (UniProt P53566 1-359). Description: EMSA; no Hop2; EMSA: 5 pmol probe, room temperature, 10 min; buffer, salt and pH not given (refs 36, 55). The following applies: protein: recombinant; tags: His; chain copies: 2; label: 32P; self-annealed, two copies of the strand; 20 bp duplex with 5' overhang 4 nt (GATC) at both ends. (A gel shift assay detects complexes by their altered migration in electrophoresis.)
Chain of His-CEBPα (P53566 whole entry): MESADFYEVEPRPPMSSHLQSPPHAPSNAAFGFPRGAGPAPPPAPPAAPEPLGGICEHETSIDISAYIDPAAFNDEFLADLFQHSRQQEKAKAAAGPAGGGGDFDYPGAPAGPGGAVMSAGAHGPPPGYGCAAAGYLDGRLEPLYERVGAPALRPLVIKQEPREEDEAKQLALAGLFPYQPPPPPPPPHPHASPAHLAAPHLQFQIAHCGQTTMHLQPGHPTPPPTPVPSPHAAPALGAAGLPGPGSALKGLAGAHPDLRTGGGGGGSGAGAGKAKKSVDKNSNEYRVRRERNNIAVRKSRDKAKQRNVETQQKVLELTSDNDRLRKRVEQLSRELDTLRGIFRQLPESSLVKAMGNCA

Chain of Flag-tagged CEBPα (P53566 whole entry): as above

B1: hemagglutinin (HA)-tagged Hop2 (natural protein, UniProt O35047 1-217, looked up)
chain: MSKSRAEAAAGAPGIILRYLQEQNRPYSAQDVFGNLQKEHGLGKAAVVKALDQLAQEGKIKEKTYGKQKIYFADQNQFDTVSDADLHGLDASIVALTAKVQSLQQSCRHMEAELKELTSALTTPEMQKEIQELKKECAQYTERLKNIKAATNHVTPEEKEKVYRDRQKYCKEWRKRKRMTTELCDAILEGYPKSKKQFFEEVGIETDEDHNVLLPDP
In the case of B1, in data set [1], the “C3-Luc reporter activity in COS1 cells cotransfected with CEBPδ and Hop2 (5.7-fold brought down to 2.2-fold)” value was 61 % suppression; the “Leptin-Luc reporter activity in COS1 cells cotransfected with CEBPδ and Hop2 (31.9- to 1.4-fold)” value is 97 % inhibition. Moreover, in data set [2], the “C3-Luc reporter activity in COS1 cells cotransfected with CEBPα and Hop2 (6.1-fold brought down to 1.6-fold)” value amounted to 74 % suppression; the “Leptin-Luc reporter activity in COS1 cells cotransfected with CEBPα and Hop2 (35.7- to 12.2-fold)” value was 66 % inhibition. For the same molecule, in data set [3], the “C3-Luc reporter activity in COS1 cells cotransfected with CEBPβ and Hop2 (4.5-fold brought down to 3.1-fold)” value turned out to be 31 % suppression; the “Leptin-Luc reporter activity in COS1 cells cotransfected with CEBPβ and Hop2 (21.0- to 1.7-fold)” value came out at 92 % inhibition.

B2: CEBP consensus palindrome probe (dsDNA)
DNA 1: GATCTGCAGATTGCGCAATCTGCA
DNA 2: GATCTGCAGATTGCGCAATCTGCA
As for B2, the binding result in data set [4] is “binds”.
